Laboratory results taken from publication PMC4444329, “Disabling Mitochondrial Peroxide Metabolism via Combinatorial Targeting of Peroxiredoxin 3 as an Effective Therapeutic Approach for Malignant Mesothelioma” (PLoS ONE, 2015).
Positions count from the first letter of the chain named. Names may count otherwise.

Experiments:
[1] = biological target: the molecule itself; experiment: cross-linking; recombinant PRX3 incubated with indicated concentrations of thiostrepton (TS) for 30 min; reducing SDS-PAGE, immunoblot with anti-PRX3 antibody
[2] = biological target: the molecule itself; experiment: cross-linking; in vitro PRX3 turnover: 100 μM PRX3, 5 μM E. coli TRX2, 0.5 μM E. coli TR, NADPH regenerating system (or TCEP), 0.2 mM TS or DMSO, 16-18 h at 37°C, successive additions of 100 μM H2O2; reducing SDS-PAGE, GelCode Blue stain
[3] = biological target: the molecule itself; experiment: cross-linking; EE Mut cycled with and without TS as in the in vitro assay, treated with DTT, exchanged into 25 mM ammonium bicarbonate; intact mass by ESI-TOF MS

B1: Human recombinant PRX3 (peroxiredoxin 3), wild type, residues 62-256 (enzyme, UniProt P30048 62-256, looked up)
chain: APAVTQHAPYFKGTAVVNGEFKDLSLDDFKGKYLVLFFYPLDFTFVCPTEIVAFSDKANEFHDVNCEVVAVSVDSHFSHLAWINTPRKNGGLGHMNIALLSDLTKQISRDYGVLLEGSGLALRGLFIIDPNGVIKHLSVNDLPVGRSVEETLRLVKAFQYVETHGEVCPANWTPDSPTIKPSPAASKEYFQKVNQ
notes: peroxiredoxin 3 (PRX3), human, PRDX3 gene residues 62-256, codon optimized, in pET15b; also called rPRX3; WT PRX3; source: E. coli C41 (DE3), purified (nickel-NTA, Q-Sepharose FF, Superdex 200); not shown: His-tag, N-terminal, kept
binding result [1]: binds

B2: Human recombinant PRX3 C127S, residues 62-256 (enzyme, UniProt P30048 62-256, looked up)
chain: B1 chain with C66S
notes: peroxiredoxin 3 (PRX3), human, PRDX3 gene residues 62-256, non-catalytic cysteine replaced with serine; also called Cys127 mutant; source: E. coli C41 (DE3), purified (nickel-NTA, Q-Sepharose FF, Superdex 200); not shown: His-tag, N-terminal, kept
binding result [2]: binds

B3: Engineered dimer of PRX3, S139E/A142E (EE Mut), residues 62-256 (enzyme, human, UniProt P30048 62-256, looked up)
chain: B1 chain with S78E, A81E
notes: peroxiredoxin 3 (PRX3), human, PRDX3 gene residues 62-256, two charged residues introduced into the dimer-dimer interface; His-tag removed by digestion with biotinylated thrombin; Measured mass of the reduced monomer 21640.6 amu; also called EE mutant; dimeric variant of PRX3; source: E. coli C41 (DE3), purified (nickel-NTA, Q-Sepharose FF, Superdex 200); not shown: His-tag, N-terminal, cleaved
stoichiometry N [3]: 2
